In article PMC11621127:
Where two headings read alike, the source gives them in different places.

Columns and labels:
[1] = biological target: 6535.3 SOSIP (chimeric SOSIP Env trimer: gp120 from 6535.3, gp41 from BG505 with MD39 substitutions) (HIV-1 strain 6535.3 | HIV-1 strain BG505); assay: mass photometry; Fab-SOSIP complexes formed at room temperature in TBS overnight, 4 uM trimer, 1.05 molar excess of Fab to SOSIP protomer, not purified by SEC; diluted to 8 nM trimer and a further 10-fold (6535.3) or 4-fold (JRCSF) on the instrument; SOSIP alone as control
[2] = biological target: JRCSF SOSIP (chimeric SOSIP Env trimer: gp120 from JRCSF.JB, gp41 from BG505 with MD39 substitutions) (HIV-1 strain JRCSF.JB | HIV-1 strain BG505); assay: as above
[3] = biological target: JRCSF SOSIP (chimeric SOSIP Env trimer: gp120 from JRCSF.JB, gp41 from BG505 with MD39 substitutions) (HIV-1 strain JRCSF.JB | HIV-1 strain BG505); assay: cryo-EM structure; SOSIP complexed with Fab at room temperature overnight, about 1.3:1 molar excess Fab:SOSIP protomer; SEC (Superose 6 Increase) in TBS; ~1.1 mg/mL (JRCSF/Ab1456) or ~1.9 mg/mL (6535.3/Ab1271); no sCD4 or CD4 mimetic
[4] = biological target: JRCSF SOSIP (chimeric SOSIP Env trimer: gp120 from JRCSF.JB, gp41 from BG505 with MD39 substitutions) (HIV-1 strain JRCSF.JB | HIV-1 strain BG505); assay: as above; remark: listed apart in the source
[5] = biological target: JRCSF SOSIP (chimeric SOSIP Env trimer: gp120 from JRCSF.JB, gp41 from BG505 with MD39 substitutions) (HIV-1 strain JRCSF.JB | HIV-1 strain BG505); assay: as above; remark: listed apart in the source
[6] = biological target: 6535.3 SOSIP (chimeric SOSIP Env trimer: gp120 from 6535.3, gp41 from BG505 with MD39 substitutions) (HIV-1 strain 6535.3 | HIV-1 strain BG505); assay: as above

6535.3 SOSIP (chimeric SOSIP Env trimer: gp120 from 6535.3, gp41 from BG505 with MD39 substitutions) (complex)
stoichiometry N [1]: 3

JRCSF SOSIP (chimeric SOSIP Env trimer: gp120 from JRCSF.JB, gp41 from BG505 with MD39 substitutions) (complex)
stoichiometry N [2]: 3

B1: Ab1456 Fab (Fab, V domains shown)
VH: QVQLVESGAEVKRPGDSLKISCKTSGDVFTSTWITWVRQMPGKDLEWMASIYLDDSDTQYNPSFQGHVTISADKSINTIYLQLSSLKVSDTATYYCAKWGVDCSDSGCSSAFDSWGQGVLVTVSS
VL: SYELTQPPSVSGAPGQRVTISCTGGTSNIGNYYVQWYQQLPGTAPKLLIYENNKRPSGISDRFSGSQSGTSGSLTITTGLQSEDEADYFCQSYDDSLSAHVFGSGTKVTIL
stoichiometry N (Fab per trimer) [3]: 2
stoichiometry N (Fab per trimer) [4]: 1
stoichiometry N (Fab per trimer) [5]: 3

B2: Ab1271 Fab (Fab, V domains shown)
VH: QVQLVESGPGLVKPSETLSLTCAVSGDSISSTWWNWIRQPPGKGLEWIGRISGDGGNTDYSPSLKSRVTISTDTSKNQLSLRLTSVAAADTAVYFCAAPDCSGPDCSPGFDYWGPGVLVTVSS
VL: QPVLTQPPSVSGAPGQRVTISCTGSSSDIGRFYVQWYQQLPGTAPKLLIYENTKRPSGISDRFSGSQSGPSASLTITGLQSEDEADYYCQSYDSSMSAHVLFGGGTRLTVL
stoichiometry N (Fab per trimer) [6]: 1
stoichiometry N (Fab per trimer) [1]: 1
